The results in this text go back to publication PMC10901363 (Science Advances, 2024).

The target in data set [1] is T1, PTPN21 FERM domain (FERM^PTPN21) (Homo sapiens, UniProt Q16825).
T1 construct: FERM domain, residues 21 to 319 (18 to 319 stated for the crystal); E. coli Rosetta (DE3), His-sumo tag removed; C-terminal EGFP fusion for MST; Flag-tagged for PIP-strips; monomer
T1 sequence (Q16825 21-319): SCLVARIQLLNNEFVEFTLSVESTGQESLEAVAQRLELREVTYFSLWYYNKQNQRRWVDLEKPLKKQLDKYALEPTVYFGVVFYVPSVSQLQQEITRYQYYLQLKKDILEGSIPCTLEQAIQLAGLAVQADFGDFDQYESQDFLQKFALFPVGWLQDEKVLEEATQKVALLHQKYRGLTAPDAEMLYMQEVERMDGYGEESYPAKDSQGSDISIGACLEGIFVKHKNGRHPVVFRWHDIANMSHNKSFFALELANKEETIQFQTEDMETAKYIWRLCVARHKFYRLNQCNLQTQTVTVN
The data set can be described thus: microscale thermophoresis (FERM-EGFP). Format: binding.

Data set [2] concerns the target mini PTPN21-EGFP (UniProt Q16825). The data set can be described thus: MST.
Substrate in data set [3]: Cc1cc(=O)oc2c(F)c(OP(=O)(O)O)c(F)cc12
As to the kind of experiment: fluorescent phosphatase assay, Michaelis-Menten. Format: biochemical, Homo sapiens. The following applies: 50 mM Hepes pH 7.0, 150 mM NaCl, 1 mM EDTA, 2 mM DTT, RT.

In data set [4] the target is T2, PTPN21 FERM-EGFP (UniProt Q16825 21-319).
T2 chain: T1 sequence (Q16825 21-319)
The data set can be described thus: MST.

The target of data set [5] is T3, PTPN21 PTP C1108S (UniProt Q16825 872-1174, C1108S).
T3 construct: also called PTP^PTPN21 C1108S; source: E. coli Rosetta (DE3), purified (as the wild type); not shown: His-sumo, N-terminal, cleaved
T3 sequence (looked up): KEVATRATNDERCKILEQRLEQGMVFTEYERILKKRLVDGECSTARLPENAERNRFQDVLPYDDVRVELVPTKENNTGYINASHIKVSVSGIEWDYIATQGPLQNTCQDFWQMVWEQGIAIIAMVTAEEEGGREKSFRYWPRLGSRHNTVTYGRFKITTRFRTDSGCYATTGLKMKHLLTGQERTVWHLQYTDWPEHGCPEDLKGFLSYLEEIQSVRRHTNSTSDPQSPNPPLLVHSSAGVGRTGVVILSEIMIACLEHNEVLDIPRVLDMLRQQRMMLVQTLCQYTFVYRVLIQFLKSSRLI
As to the kind of experiment: crystal structure; mini PTPN21 C1108S: FERM and PTP joined on one chain by a flexible linker, hanging drop, 4°C. The note with it: both partners purified.

For data set [6], the target named is T4, PTPN21 PTP-EGFP (UniProt Q16825 872-1174).
T4 construct: also called WT PTP-EGFP; source: E. coli Rosetta (DE3), purified (as the untagged domain); not shown: His-sumo, N-terminal, cleaved; EGFP, C-terminal, kept
T4 sequence (looked up): T3 sequence (looked up) with S237C
As to the kind of experiment: MST; PTP-EGFP fixed at 80 nM, FERM titrated from 300 μM to 0.09 nM; 20 mM Hepes pH 7.0, 150 mM NaCl, 0.3 mM TCEP, 1.5 mM BSA; mutants measured similarly. The following applies: both partners purified.

In data set [7] the target is T4, PTPN21 PTP-EGFP. As to the kind of experiment: MST. The note with it: both partners purified.
The target of data set [8] is T5, mini PTPN21-EGFP (UniProt Q16825 878-1174; Q16825 878-1174).
T5 chain: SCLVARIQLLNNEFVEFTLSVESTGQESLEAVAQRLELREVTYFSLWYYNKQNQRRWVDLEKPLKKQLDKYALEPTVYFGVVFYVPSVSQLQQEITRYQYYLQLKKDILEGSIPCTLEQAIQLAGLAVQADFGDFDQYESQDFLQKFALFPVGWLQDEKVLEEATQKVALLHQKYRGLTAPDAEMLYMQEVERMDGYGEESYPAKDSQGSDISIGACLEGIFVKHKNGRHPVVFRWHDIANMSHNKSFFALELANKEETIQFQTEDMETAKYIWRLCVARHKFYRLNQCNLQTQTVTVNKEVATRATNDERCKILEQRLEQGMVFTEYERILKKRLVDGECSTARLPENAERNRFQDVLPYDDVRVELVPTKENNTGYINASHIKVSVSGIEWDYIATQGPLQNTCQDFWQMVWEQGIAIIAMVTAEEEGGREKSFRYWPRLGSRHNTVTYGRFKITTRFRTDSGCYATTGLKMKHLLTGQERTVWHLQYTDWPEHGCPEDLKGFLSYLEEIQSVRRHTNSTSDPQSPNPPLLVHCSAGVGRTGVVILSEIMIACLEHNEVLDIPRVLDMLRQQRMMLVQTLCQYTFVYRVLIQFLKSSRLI
The data set can be described thus: MST; + Ins(1,3)P2.

Data set [9] addresses T5, mini PTPN21-EGFP. The data set can be described thus: MST.
Data set [10] concerns the target T6, PTPN21 PTP R1114Q (UniProt Q16825 872-1174, R1114Q).
T6 sequence: T3 sequence (looked up) with S237C, R243Q
As to the kind of experiment: MST.

Data set [11] deals with T3, PTPN21 PTP C1108S. The data set can be described thus: crystal structure; PTP C1108S with twofold molar excess of Src pY530 peptide, hanging drop, 4°C. The following applies: both partners purified.
In data set [12] the target is T7, PTPN21 PTP E1067D C1108S-EGFP (UniProt Q16825 872-1174, E1067D | C1108S).
T7 construct: also called PTP^PTPN21 C1108S E1067D; source: E. coli Rosetta (DE3), purified (as the wild type); not shown: His-sumo, N-terminal, cleaved; EGFP, C-terminal, kept
T7 sequence (looked up): T3 sequence (looked up) with E196D
The data set can be described thus: MST; fluorescent PTP mutant-EGFP (80 nM) mixed with an increasing amount of Src pY530 peptide; 20 mM Hepes pH 7.0, 150 mM NaCl, 0.3 mM TCEP, 1.5 mM BSA. The following applies: both partners purified.

For data set [13], the target named is T8, PTPN21 PTP C1108S-EGFP (UniProt Q16825 872-1174, C1108S).
T8 construct: also called PTP^PTPN21 C1108S; source: E. coli Rosetta (DE3), purified (as the wild type); not shown: His-sumo, N-terminal, cleaved; EGFP, C-terminal, kept
T8 sequence (looked up): T3 sequence (looked up)
Described as above. The note with it: both partners purified.

The target of data set [14] is T9, PTPN21 PTP R1114Q (UniProt Q16825 872-1174, R1114Q).
T9 construct: also called PTP^PTPN21 R1114Q; source: E. coli Rosetta (DE3), purified (as the wild type)
T9 sequence (looked up): T3 sequence (looked up) with S237C, R243Q
The data set is described as above. The note with it: both partners purified.

The target of data set [15] is T10, PTPN21 PTP C1108S-EGFP (UniProt Q16825 872-1174, C1108S).
T10 sequence: T3 sequence (looked up)
As to the kind of experiment: MST.

The target of data set [16] is T11, PTPN21 PTP E1067D C1108S-EGFP (UniProt Q16825 872-1174, E1067D | C1108S).
T11 sequence: T3 sequence (looked up) with E196D
As to the kind of experiment: MST.

Where a chain is given by its changes, count along the chain named. In names and notes the source's numbering stands. Several values for one entry are separate records, joined by “and”; a condition that tells them apart may be missing. Equal values may be shown once. Where no end group is shown, it is not given here. [ ]: non-standard residue; d: D form. pY = N[C@@H](Cc1ccc(OP(=O)(O)O)cc1)C(=O)O

Take `O=P(O)(O)O[C@@H]1[C@H](O)[C@H](OP(=O)(O)O)[C@@H](O)[C@H](O)[C@H]1O` [ins(1,3)P2]: the Kd in data set [1] was roughly 6.11 µM.
Consider “HPV18 E7 CR3 domain (from UniProt P06788 54-105) (domain or fragment)”, for which the Kd in data set [2] came to 49 nM.
The molecule “HPV18 E7 protein, full length (from UniProt P06788 1-105) (natural protein)” returned a dissociation constant Kd in data set [2] of 200 nM.
As for `O=P(O)(O)O[C@@H]1[C@@H](O)[C@H](OP(=O)(O)O)[C@H](O)[C@H](O)[C@H]1O` [ins(1,5)P2], the equilibrium dissociation constant (Kd) in data set [1] is roughly 1.32 µM.

B1: PTPN21 PTP domain (residues 872 to 1174) (domain or fragment)
chain: T3 sequence (looked up) with S237C
For the molecule B1, in data set [3], the Michaelis-Menten constant (Km) worked out at 28.6 µM and the kcat amounted to 1.2 s⁻¹. Further, in data set [4], the dissociation constant Kd is 2310 nM and 3480 nM and 1610 nM.

B2: PTPN21 PTP domain (PTP^PTPN21) (Homo sapiens; E1067D) (protein)
chain: T3 sequence (looked up) with E196D, S237C
notes: PTP (phosphatase) domain, residues 872 to 1174; E. coli Rosetta (DE3), His-sumo tag removed
For B2, in data set [3] (0.2 nM enzyme), the Km was found to be 250.93 ± 15.69 µM and the kcat worked out at 38.32 ± 4.66 s⁻¹.

B3: PTPN21 FERM domain (residues 21 to 319) (domain or fragment, UniProt Q16825 21-319, looked up)
chain: T1 sequence (Q16825 21-319)
notes: also called FERM^PTPN21; source: E. coli Rosetta (DE3), purified (Ni-NTA, source Q, Superdex 200); not shown: His-sumo, N-terminal, cleaved
B3: the binding result in [5] is recorded as “binds”. Further, in data set [6], the Kd was roughly 7.6 µM.

B4: HPV18 E7 CR3 domain (domain or fragment)
chain: AEPQRHTMLCMCCKCEARIKLVVESSADDLRAFQQLFLNTLSFVCPWCASQQ
notes: source: E. coli Rosetta (DE3), purified (as the PTPN21 domains); not shown: His-sumo, N-terminal, cleaved
In the case of B4, the figures for the equilibrium dissociation constant (Kd) in data set [7] and in data set [8] were roughly 2.8 nM and 40.3 nM, respectively.

B5: HPV18 E7 protein, full length (natural protein)
chain: MHGPKATLQDIVLHLEPQNEIPVDLLCHEQLSDSEEENDEIDGVNHQHLPARRAEPQRHTMLCMCCKCEARIKLVVESSADDLRAFQQLFLNTLSFVCPWCASQQ
With B5, the Kd was 215 nM in data set [9] and 352 nM in data set [8].

B6: Src pY530 peptide (peptide)
peptide: STEPQ[pY]QPGENL
notes: also called Src pY530 synthetic peptide; Peptide Src pY530; source: synthetic peptide (ChinaPeptides Co. Ltd.)
Regarding B6, the Kd is 6.23 µM in [10], 2930 nM in [15] and 5.61 µM in data set [16]. Further, the binding result in data set [11], in data set [12], in [13] and in data set [14] was “binds” each time.
